Experimental data published in paper PMC13577001, “Crystal structures of the μ2 subunit of clathrin-adaptor protein 2 in complex with peptides derived from human papillomavirus 16 E7” (The Journal of Microbiology, 2025).
Substitutions are numbered along the chain they refer to. In names and notes the source's numbering stands. Like-named read-outs stand apart in the source and are kept apart here. No end group written: not given here.

B1: HPV16 E7(16–32; S31E∙S32E) 17-mer peptide (peptide)
peptide: QPETTDLYCYEQLNDEE
notes: source: synthetic peptide, bought: Dandicure (Korea)
B2: HPV16 E7(22–32; S31E∙S32E) 11-mer phosphomimetic peptide (peptide)
peptide: LYCYEQLNDEE
notes: also called 11-mer phosphomimetic mutant HPV16 E7 peptide; source: synthetic peptide, bought: Dandicure (Korea)
B3: HPV16 E7(22–32) wild-type 11-mer peptide (peptide)
peptide: LYCYEQLNDSS
notes: as for B1
B4: HPV16 E7(22–39; S31E∙S32E) 18-mer phosphomimetic peptide (peptide)
peptide: LYCYEQLNDEEEEEDEID
notes: HPV16 E7 residues 22–39 with S31E and S32E; source: synthetic peptide, bought: Dandicure (Korea)
B5: HPV16 E7(22–39) wild-type 18-mer peptide (peptide)
peptide: LYCYEQLNDSSEEEDEID
notes: HPV16 E7 residues 22–39; source: synthetic peptide, bought: Dandicure (Korea)

Experiments:
PIP5KIγ (Homo sapiens) = assay: ITC; conditions: cited from earlier work
[1] = biological target: integrin α4 (Homo sapiens); assay: ITC; conditions: cited from earlier work
[2] = biological target: T1, AP2-μ2 (μ2 subunit of clathrin-adaptor protein 2, residues 158–435) (Rattus norvegicus, UniProt P84092); assay: ITC binding of HPV E7-derived synthetic peptides to recombinant wild-type AP2-μ2; conditions: for binding to AP2-μ2 in ITC (result in words): peptide titrated into wild-type recombinant AP2-μ2
T1 construct: recombinant AP2-μ2 protein (residues 158–435) expressed in E. coli; made in house; host or cells: Escherichia coli BL21(DE3) RIL
T1 sequence (P84092 158-435): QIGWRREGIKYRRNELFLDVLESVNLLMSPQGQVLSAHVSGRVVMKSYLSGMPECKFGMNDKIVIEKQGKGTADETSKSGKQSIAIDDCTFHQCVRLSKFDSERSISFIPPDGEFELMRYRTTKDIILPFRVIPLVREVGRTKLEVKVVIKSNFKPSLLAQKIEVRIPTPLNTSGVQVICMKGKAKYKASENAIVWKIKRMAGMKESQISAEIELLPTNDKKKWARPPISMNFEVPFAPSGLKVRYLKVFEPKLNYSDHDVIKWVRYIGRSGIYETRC
Experimental: A DNA fragment encoding residues 158–435 of the μ2 subunit of rat AP2 was cloned into a modified pET28a plasmid (Novagen, USA) to produce a recombinant protein tagged with (His)10−maltose-binding protein. The recombinant protein was expressed in Escherichia coli BL21(DE3) RIL cells (Novagen) grown in Luria-Bertani medium at 18°C for 16 h following induction with 0.5 mM isopropyl β-D-thiogalactopyranoside. Proteins were purified using Ni-NTA affinity chromatography (QIAGEN, Germany), followed by size-exclusion chromatography on a HiLoad 26/600 Superdex 200 prep grade column (Cytiva, USA). The (His)10−maltose-binding protein tag was cleaved by TEV protease and removed during subsequent purification steps. Final protein samples were equilibrated in a buffer containing 50 mM Tris-HCl (pH 7.5), 500 mM NaCl, and 3 mM β-mercaptoethanol. […] Crystals were obtained using the sitting-drop vapor diffusion method at 18°C by from a mixture of 1 μl protein solution (10 mg/ml) and 1 μl precipitant solution. […] X-ray diffraction data were collected at beamlines 5C and 7A of the Pohang Accelerator Laboratory (Korea) and processed using HKL2000 ([Otwinowski and Minor, 1997]). Molecular replacement was performed using Phaser ([McCoy et al., 2007]) with the structure of AP2-μ2 complexed with a PIP5KIγ-derived peptide (Protein Data Bank [PDB] code: 3H85) used as the search model ([Kahlfeldt et al., 2010]). Model building and refinement were performed using Coot ([Emsley and Cowtan, 2004]) and PHENIX ([Adams et al., 2010]), respectively.
Recombinant AP2-μ2 protein harboring R402A∙K405A mutations was prepared and purified using the same protocol as that used for the wild-type protein. […] All peptides were dialyzed against the same buffer used for AP2-μ2 purification. Isothermal titration calorimetry (ITC) was performed using recombinant AP2-μ2 proteins and synthetic peptides as previously described ([Jung et al., 2023]; [Lim et al., 2021]).
Fig. 2. ITC analysis of the effect of the Y-x-x-Φ motif on complex formation. Each peptide (0.2 mM) was titrated into 10 μM recombinant AP2-μ2 as indicated. KD and Ka values were deduced from curve fitting of the integrated heat per mole of added ligand. Mutated residues are highlighted in blue.
Fig. 3. ITC analysis of the effect of the acidic cluster region on complex formation. Each peptide was titrated into wild-type (A) or R402A∙K405A mutant (B) recombinant AP2-μ2 as indicated. KD and Ka values were obtained by curve-fitting of the integrated heat per mole of added ligand. Mutated residues are highlighted in blue. […] Negatively charged cluster residues are marked in red.

[3] = biological target: T2, μ2 subunit of clathrin-adaptor protein 2 (AP2-μ2), residues 158–435, wild type (rat, UniProt P84092 158-435); assay: ITC; peptide titrated into recombinant AP2-μ2; 50 mM Tris-HCl (pH 7.5), 500 mM NaCl, 3 mM β-mercaptoethanol; in Fig. 2 peptide 0.2 mM into 10 μM AP2-μ2; conditions: both partners purified
T2 construct: also called recombinant AP2-μ2; μ2 subunit of rat AP2; source: E. coli BL21(DE3) RIL, purified (Ni-NTA, SEC)
T2 sequence (looked up): T1 sequence (P84092 158-435)

[4] = biological target: T3, AP2-μ2 (residues 158–435) R402A∙K405A mutant (rat, UniProt P84092 158-435, R402A | K405A); assay: as above; conditions: both partners purified
T3 construct: also called R402A∙K405A mutant recombinant AP2-μ2; source: E. coli, purified by the same protocol as the wild-type protein
T3 sequence: T1 sequence (P84092 158-435) with R245A, K248A

[5] = biological target: T4, μ2 subunit of clathrin-adaptor protein 2 (AP2-μ2), residues 158–435, wild type (rat, UniProt P84092 158-435); assay: ITC
T4 chain: T1 sequence (P84092 158-435)

[6] = biological target: T4, μ2 subunit of clathrin-adaptor protein …; assay: ITC

Molecule	binding to AP2-μ2 in ITC (result in words) [2]	Kd [3]	further results
AP2-μ2 (from UniProt Q96CW1)	–	–	Kd (PIP5KIγ (Homo sapiens)): 6 µM; Kd [1]: 72 µM
Y25H: 11-mer HPV16 E7 residues 22–32 synthetic peptide with Y25H mutation (LYCHEQLNDSS)	severely impaired	–	–
Y25N: 11-mer HPV16 E7 residues 22–32 synthetic peptide with Y25N mutation (LYCNEQLNDSS)	severely impaired	–	–
LHCYEELSEEETEEEPRF [HPV15 E7(24–41)]	–	–	Kd [2]: 13.3 µM
L28A: 11-mer HPV16 E7 residues 22–32 synthetic peptide with L28A mutation (LYCYEQANDSS)	severely impaired	–	–
residues 25–42 of HPV18 E7: 18-mer peptide lacking the Y-x-x-Φ motif, residues 25–42 of HPV18 E7 (LLCHEQLSDSEEENDEID; UniProt P06788 25-42, looked up, fragment)	did not bind	–	–
B1	–	1.64 µM	Kd [4]: 8.26 µM
B2	–	1.54 µM	–
B3	–	5.88 µM	Ka [5]: 170000 M⁻¹
B4	–	2.34 µM	–
B5	–	3.34 µM	Ka [6]: 299000 M⁻¹
